Measurements: publication PMC12046049 (2025)
Each block holds one binder with its values, some of them ahead of it.

Experiments:
[1] = target: HSPB7ACD (α-crystallin domain, residues 78-162 of isoform 2) (human, UniProt Q9UBY9-2 78-162)
[2] = target: T1, HSPB5ACD (α-crystallin domain of HSPB5) (human)
T1 chain: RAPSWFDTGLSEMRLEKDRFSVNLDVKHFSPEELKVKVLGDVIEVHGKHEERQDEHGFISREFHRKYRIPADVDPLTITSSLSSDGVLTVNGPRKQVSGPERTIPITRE

[3] = target: HSPB1ACD (α-crystallin domain of HSPB1) (human)
HSPB1ACD (α-crystallin domain of HSPB1) (human), sequence (chain, as listed by the source): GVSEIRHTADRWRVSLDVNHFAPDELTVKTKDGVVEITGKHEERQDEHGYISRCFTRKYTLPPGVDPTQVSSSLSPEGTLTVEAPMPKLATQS

Kd [1]: 109 µM
B1: HSPB1 C-terminal peptide (cognate peptide of HSPB1ACD) (peptide)
chain: ITIPVTFE

Kd [2]: 23 µM
Kd [1]: 71 µM
B2: HSPB5 C-terminal peptide (cognate peptide of HSPB5ACD) (peptide)
chain: ERTIPITRE
modifications: Limits are not printed. 156-164, containing the IPI motif, is taken by convention from the peptide in the HSPB5 ACD-peptide structure PDB 4M5S; check residues come from the IPI motif, not numbered in the text. Terminal chemistry not stated.

Kd [2]: 186 µM
Kd [1]: 378 µM
Kd [3]: 559 µM
B3: HSPB7 C-terminal peptide (residues 168-175, TFRTEIKI) (peptide)
peptide: TFRTEIKI
